The target of this assay is T1, guanine nucleotide dissociation inhibitor (GDI) (yeast, UniProt P39958 1-451).
T1 construct: expressed as GST-PreSc-GDI; also called Gdi1; source: E. coli BL21 DE3 (Rosetta), purified (glutathione sepharose, cleaved from the beads with PreScission protease); not shown: GST, N-terminal, cleaved
T1 sequence (looked up): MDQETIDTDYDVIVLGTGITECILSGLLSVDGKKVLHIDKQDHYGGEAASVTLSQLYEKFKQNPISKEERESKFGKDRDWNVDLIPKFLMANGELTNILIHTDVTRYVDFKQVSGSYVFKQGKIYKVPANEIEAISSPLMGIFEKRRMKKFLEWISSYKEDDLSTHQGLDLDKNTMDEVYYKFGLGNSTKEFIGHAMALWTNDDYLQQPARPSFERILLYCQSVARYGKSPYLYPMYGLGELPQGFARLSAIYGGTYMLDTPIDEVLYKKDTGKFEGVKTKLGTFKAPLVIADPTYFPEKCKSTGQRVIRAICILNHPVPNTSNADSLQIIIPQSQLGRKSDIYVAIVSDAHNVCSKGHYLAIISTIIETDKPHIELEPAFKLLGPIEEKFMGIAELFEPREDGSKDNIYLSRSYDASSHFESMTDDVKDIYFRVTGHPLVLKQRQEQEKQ
Briefly: SEC; after in vitro prenylation (Rab GTPase, GDI, His6-Mrs6, Bet4 His6-TEV-Bet2 at 10:9:1:1, 37°C, 1.5 h) and removal of His6-Mrs6 and Bet4 His6-TEV-Bet2 on Ni2+ resin, the supernatant was loaded on a Superdex200 increase column; prenylation buffer 50 mM HEPES-NaOH pH 7.4, 150 mM NaCl, 1.5 mM MgCl2, 1 mM DTT. The following applies: both partners purified. In general terms: In gel filtration, larger molecules generally elute earlier.

B1: prenylated Ypt7 (natural protein, yeast, UniProt P32939 1-208, looked up)
chain: MSSRKKNILKVIILGDSGVGKTSLMHRYVNDKYSQQYKATIGADFLTKEVTVDGDKVATMQVWDTAGQERFQSLGVAFYRGADCCVLVYDVTNASSFENIKSWRDEFLVHANVNSPETFPFVILGNKIDAEESKKIVSEKSAQELAKSLGDIPLFLTSAKNAINVDTAFEEIARSALQQNQADTEAFEDDYNDAINIRLDGENNSCSC
modifications: prenylated in vitro with geranylgeranyl pyrophosphate (C-terminal prenyl anchor; positions not stated)
notes: Ypt7, the Rab7-like GTPase of yeast; The methods list GST-TEV-Ypt7 (cleaved off the beads with TEV protease), Ypt7-His6 and, once, His6-TEV-Ypt7; I surmise that the prenylated Ypt7 came from GST-TEV-Ypt7, because it has a free C-terminus; also called Rab7-like Ypt7; Ypt7-GDP; source: E. coli BL21 DE3 (Rosetta), purified; preloaded with GDP and prenylated in vitro (Mrs6, Bet4-Bet2, geranylgeranyl …)
In the case of B1, the binding result is given as “binds”.

(Values after publication PMC10978497, “The GTPase activating protein Gyp7 regulates Rab7/Ypt7 activity on late endosomes” (The Journal of Cell Biology, 2024).)
